# Assay results reported in patent US20200024330A1.
# How the values were obtained:
# Experiment in all cases: cell-based or functional assay
# [1] = target: MuLV envelope protein (control pseudovirus) (MuLV)
# [2] = target: HIV-1 Env of isolate TR0.11 (HIV-1)
# [3] = target: HIV-1 Env of isolate DU156 (HIV-1)
# [4] = target: HIV-1 MGRM-C-028 Env (clade C pseudovirus) (HIV-1)
# [5] = target: HIV-1 APV17 Env (clade B pseudovirus) (HIV-1)
# [6] = target: HIV-1 JRFL Env (clade B pseudovirus) (HIV-1)
# [7] = target: HIV-1 CMU02 Env (pseudovirus) (HIV-1)
# [8] = target: HIV-1 92UG005 Env (pseudovirus) (HIV-1)
# [9] = target: HIV-1 Env of isolate 92RW020 (clade A) (HIV-1)
# [10] = target: HIV-1 Env of isolate 92BR020 (clade B) (HIV-1)
# [11] = target: HIV-1 Env of isolate MGRM-C-027 (clade C) (HIV-1)
# [12] = target: HIV-1 Env of isolate MGRM-C-026 (clade C) (HIV-1)
# [13] = target: HIV-1 JR-CSF Env K305A (HIV-1 JR-CSF) (UniProt P20871)
# [14] = target: HIV-1 envelope glycoprotein (Env) of isolate 92BR020, on pseudovirus (HIV-1)
# [15] = target: HIV-1 Env of isolate MGRM-F1-023 (clade F), on pseudovirus (HIV-1)
# [16] = target: HIV-1 envelope glycoprotein (Env) of isolate MGRM-Chronic-B-011, on pseudovirus (HIV-1)
# [17] = target: HIV-1 envelope glycoprotein (Env) of isolate MGRM-Chronic-B-001, on pseudovirus (HIV-1)
# [18] = target: HIV-1 Env of isolate MGRM-F1-017 (clade F), on pseudovirus (HIV-1)
# [19] = target: HIV-1 Env of isolate MGRM-F1-022 (clade F), on pseudovirus (HIV-1)
# [20] = target: HIV-1 envelope glycoprotein (Env) of isolate APV_13, on pseudovirus (HIV-1)
# [21] = target: HIV-1 Env of isolate 98CN009 (subtype CRF07_BC), on pseudovirus (HIV-1)
# [22] = target: HIV-1 Env of isolate APV_17 (HIV-1)
# [23] = target: HIV-1 Env of isolate 93TH305 (HIV-1)
# [24] = target: HIV-1 Env of isolate 92WR024 (pseudovirus) (HIV-1)
# [25] = target: HIV-1 Env of isolate MGRM-D-008 (subtype D), on pseudovirus (HIV-1)
# [26] = target: HIV-1 Env of isolate MGRM-D-005 (subtype D), on pseudovirus (HIV-1)
# [27] = target: HIV-1 Env of isolate 92RW009 (clade A), on pseudovirus (HIV-1)
# [28] = target: HIV-1 Env of isolate MG RM-A-010 (pseudovirus) (HIV-1)
# [29] = target: HIV-1 Env of isolate 92UG031 (pseudovirus) (HIV-1)
# [30] = target: HIV-1 Env of isolate 92UG046 (subtype D), on pseudovirus (HIV-1)
# [31] = target: HIV-1 Env of isolate MG RM-A-007 (pseudovirus) (HIV-1)
# [32] = target: HIV-1 Env of isolate MG RM-A-005 (pseudovirus) (HIV-1)
# [33] = target: HIV-1 Env of isolate 93UG077 (pseudovirus) (HIV-1)
# [34] = target: HIV-1 Env of isolate MG RM-A-012 (pseudovirus) (HIV-1)
# [35] = target: HIV-1 Env of isolate CMU02 (pseudovirus) (HIV-1)
# [36] = target: HIV-1 Env of isolate MGRM-AE-004 (pseudovirus) (HIV-1)
# [37] = target: HIV-1 Env of isolate 92UG001 (subtype D), on pseudovirus (HIV-1)
# [38] = target: HIV-1 Env of isolate 6535.3 (HIV-1)
# [39] = target: HIV-1 Env of isolate VLGCA1 (pseudovirus) (HIV-1)
# [40] = target: HIV-1 Env of isolate 92TH021 (pseudovirus) (HIV-1)
# 1443_C16 (PG16) (TCN-116) (antibody), sequence (VH): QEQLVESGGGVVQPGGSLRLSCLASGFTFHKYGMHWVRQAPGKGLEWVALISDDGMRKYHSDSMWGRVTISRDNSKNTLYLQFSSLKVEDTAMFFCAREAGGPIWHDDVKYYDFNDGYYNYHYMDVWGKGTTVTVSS
# 1443_C16 (PG16) (TCN-116) (antibody), sequence (VL): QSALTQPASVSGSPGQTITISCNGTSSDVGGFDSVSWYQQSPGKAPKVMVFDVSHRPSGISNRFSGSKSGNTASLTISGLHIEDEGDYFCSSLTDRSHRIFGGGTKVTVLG
substance,measurement,setting,value
1443_C16 (PG16) (TCN-116) (antibody),"IC50, pseudovirus neutralization (TZM-bl), control virus",[1],> 25 µg/mL
same,"IC50, pseudovirus neutralization (TZM-bl)",[2],3.61 µg/mL
same,"IC50, pseudovirus neutralization (TZM-bl)",[3],< 0.01 µg/mL
4877_D15 (PGT-122) (antibody),"Neutralization by PGT-122, IC50",[4],2.06 µg/mL
same,"Neutralization by PGT-122, IC80",[4],> 10 µg/mL
same,"Neutralization by PGT-122, IC90",[4],> 10 µg/mL
same,"Neutralization by PGT-122, IC95",[4],> 10 µg/mL
same,"Neutralization by PGT-122, IC50",[5],0.522 µg/mL
same,"Neutralization by PGT-122, IC80",[5],1.76 µg/mL
same,"Neutralization by PGT-122, IC90",[5],3.58 µg/mL
same,"Neutralization by PGT-122, IC95",[5],6.92 µg/mL
same,"Neutralization by PGT-122, IC50",[6],0.0471 µg/mL
same,"Neutralization by PGT-122, IC80",[6],0.166 µg/mL
same,"Neutralization by PGT-122, IC90",[6],0.342 µg/mL
same,"Neutralization by PGT-122, IC95",[6],0.659 µg/mL
5141_B17 (PGT-126) (antibody),IC50,[7],> 10 µg/mL
same,IC80,[7],> 10 µg/mL
same,IC90,[7],> 10 µg/mL
same,IC95,[7],> 10 µg/mL
same,IC50,[8],0.0181 µg/mL
same,IC80,[8],0.145 µg/mL
same,IC90,[8],0.553 µg/mL
same,IC95,[8],2.45 µg/mL
5147_N06 (PGT-130) (antibody),neutralization IC50,[9],0.014 µg/mL
same,neutralization IC80,[9],0.508 µg/mL
same,neutralization IC90,[9],3.68 µg/mL
same,neutralization IC95,[9],> 10 µg/mL
same,neutralization IC50,[10],1.12 µg/mL
same,neutralization IC80,[10],> 10 µg/mL
same,neutralization IC90,[10],> 10 µg/mL
same,neutralization IC95,[10],> 10 µg/mL
same,neutralization IC50,[11],0.0052 µg/mL
same,neutralization IC80,[11],0.0318 µg/mL
same,neutralization IC90,[11],0.106 µg/mL
same,neutralization IC95,[11],0.464 µg/mL
same,neutralization IC50,[12],0.0173 µg/mL
same,neutralization IC80,[12],0.263 µg/mL
same,neutralization IC90,[12],1.32 µg/mL
same,neutralization IC95,[12],6.13 µg/mL
PGT-121 (antibody),Fold IC50 increase relative to wild-type,[13],1.9 fold
PGV04 (antibody),"IC50, pseudovirus neutralization",[14],0.25 µg/mL
same,"IC50 (µg/mL), single-round pseudovirus neutralization",[15],0.171 µg/mL
same,"IC50, pseudovirus neutralization",[16],0.497 µg/mL
same,"IC50, pseudovirus neutralization",[17],0.048 µg/mL
same,"IC50 (µg/mL), single-round pseudovirus neutralization",[18],2.38 µg/mL
same,"IC50 (µg/mL), single-round pseudovirus neutralization",[19],0.072 µg/mL
same,"IC50, pseudovirus neutralization",[20],1.23 µg/mL
VRC01 (antibody),"IC50, pseudovirus neutralization",[21],0.346 µg/mL
same,IC50,[22],0.477 µg/mL
same,IC50,[23],0.243 µg/mL
same,"IC50 (µg/mL), pseudovirus neutralization",[24],0.327 µg/mL
same,"IC50, pseudovirus neutralization",[25],0.854 µg/mL
same,"IC50, pseudovirus neutralization",[26],> 50 µg/mL
same,"IC50, single-round pseudovirus neutralization",[27],0.187 µg/mL
same,"IC50 (µg/mL), pseudovirus neutralization",[28],0.325 µg/mL
same,"IC50 (µg/mL), pseudovirus neutralization",[29],0.469 µg/mL
same,"IC50, pseudovirus neutralization",[30],12.7 µg/mL
same,"IC50 (µg/mL), pseudovirus neutralization",[31],12.6 µg/mL
same,"IC50 (µg/mL), pseudovirus neutralization",[32],0.095 µg/mL
same,"IC50 (µg/mL), pseudovirus neutralization",[33],0.097 µg/mL
same,"IC50 (µg/mL), pseudovirus neutralization",[34],> 50 µg/mL
same,"IC50 (µg/mL), pseudovirus neutralization",[35],0.515 µg/mL
same,"IC50 (µg/mL), pseudovirus neutralization",[36],0.187 µg/mL
same,"IC50, pseudovirus neutralization",[37],1.16 µg/mL
same,IC50,[38],1.75 µg/mL
same,"IC50 (µg/mL), pseudovirus neutralization",[39],0.163 µg/mL
same,"IC50 (µg/mL), pseudovirus neutralization",[40],0.616 µg/mL
